The chains are these.
B1: CIgG4F2A1(G4S)1 (Fc fusion)
chain 1: GPPCPPCPAPEFLGGPSVFLFPPKPKDTLMISRTPEVTCVVVDVSQEDPEVQFNWYVDGVEVHNAKTKPREEQFNSTYRVVSVLTVLHQDWLNGKEYKCKVSNKGLPSSIEKTISKAKGQPREPQVYTLPPCQEEMTKNQVSLWCLVKGFYPSDIAVEWESNGQPENNYKTTPPVLDSDGSFFLYSRLTVDKSRWQEGNVFSCSVMHEALHNHYTQKSLSLSLGKGGGGSDVQLQESGGGLVQAGGSLKLSCAASGGSLSRYDMGWFRQAPGKEREFVARISWSGDTKYYADAVEGRFAISRDNAQNTVYLQMNSLKPEDTAVYYCAVALYGNRGYYDVNTYSYWGQGTRVTVS
chain 2: GPPCPPCPAPEFLGGPSVFLFPPKPKDTLMISRTPEVTCVVVDVSQEDPEVQFNWYVDGVEVHNAKTKPREEQFNSTYRVVSVLTVLHQDWLNGKEYKCKVSNKGLPSSIEKTISKAKGQPREPQVCTLPPSQEEMTKNQVSLSCAVKGFYPSDIAVEWESNGQPENNYKTTPPVLDSDGSFFLVSRLTVDKSRWQEGNVFSCSVMHEALHNHYTQKSLSLSLGKGGGGSEVQLLESGGGLVQPGGSLRLSCAASGFTFGNYDMAWVRQAPGKRPEWVSSIDTGGDITHYADSVKGRFTISRDNAKNTLYLQMNSLRPEDTAVYWCATDEEYALGPNEFDYYGQGTLVTVSS
B2: CIgG4F3A1(G4S)1 (Fc fusion)
chain 1: GPPCPPCPAPEFLGGPSVFLFPPKPKDTLMISRTPEVTCVVVDVSQEDPEVQFNWYVDGVEVHNAKTKPREEQFNSTYRVVSVLTVLHQDWLNGKEYKCKVSNKGLPSSIEKTISKAKGQPREPQVYTLPPCQEEMTKNQVSLWCLVKGFYPSDIAVEWESNGQPENNYKTTPPVLDSDGSFFLYSRLTVDKSRWQEGNVFSCSVMHEALHNHYTQKSLSLSLGKGGGGSDVQLQESGGGLVQAGGSLKLSCAASRGSLSRWDVAWFRQAPGKERSFVTRISWSGTTSYYADAVKGRFAISRDNAKNTVYLQMNSLKPEDTAVYYCAVALYGNRGYYDVNAHSYWGQGTQVTVS
chain 2: GPPCPPCPAPEFLGGPSVFLFPPKPKDTLMISRTPEVTCVVVDVSQEDPEVQFNWYVDGVEVHNAKTKPREEQFNSTYRVVSVLTVLHQDWLNGKEYKCKVSNKGLPSSIEKTISKAKGQPREPQVCTLPPSQEEMTKNQVSLSCAVKGFYPSDIAVEWESNGQPENNYKTTPPVLDSDGSFFLVSRLTVDKSRWQEGNVFSCSVMHEALHNHYTQKSLSLSLGKGGGGSEVQLLESGGGLVQPGGSLRLSCAASGFTFGNYDMAWVRQAPGKRPEWVSSIDTGGDITHYADSVKGRFTISRDNAKNTLYLQMNSLRPEDTAVYWCATDEEYALGPNEFDYYGQGTLVTVSS
B3: CIgG4F2A1(RS) (Fc fusion)
chain 1: GPPCPPCPAPEFLGGPSVFLFPPKPKDTLMISRTPEVTCVVVDVSQEDPEVQFNWYVDGVEVHNAKTKPREEQFNSTYRVVSVLTVLHQDWLNGKEYKCKVSNKGLPSSIEKTISKAKGQPREPQVYTLPPCQEEMTKNQVSLWCLVKGFYPSDIAVEWESNGQPENNYKTTPPVLDSDGSFFLYSRLTVDKSRWQEGNVFSCSVMHEALHNHYTQKSLSLSLGKRSDVQLQESGGGLVQAGGSLKLSCAASGGSLSRYDMGWFRQAPGKEREFVARISWSGDTKYYADAVEGRFAISRDNAQNTVYLQMNSLKPEDTAVYYCAVALYGNRGYYDVNTYSYWGQGTRVTVS
chain 2: GPPCPPCPAPEFLGGPSVFLFPPKPKDTLMISRTPEVTCVVVDVSQEDPEVQFNWYVDGVEVHNAKTKPREEQFNSTYRVVSVLTVLHQDWLNGKEYKCKVSNKGLPSSIEKTISKAKGQPREPQVCTLPPSQEEMTKNQVSLSCAVKGFYPSDIAVEWESNGQPENNYKTTPPVLDSDGSFFLVSRLTVDKSRWQEGNVFSCSVMHEALHNHYTQKSLSLSLGKRSEVQLLESGGGLVQPGGSLRLSCAASGFTFGNYDMAWVRQAPGKRPEWVSSIDTGGDITHYADSVKGRFTISRDNAKNTLYLQMNSLRPEDTAVYWCATDEEYALGPNEFDYYGQGTLVTVSS
B4: CIgG4F3A1(RS) (Fc fusion)
chain 1: GPPCPPCPAPEFLGGPSVFLFPPKPKDTLMISRTPEVTCVVVDVSQEDPEVQFNWYVDGVEVHNAKTKPREEQFNSTYRVVSVLTVLHQDWLNGKEYKCKVSNKGLPSSIEKTISKAKGQPREPQVYTLPPCQEEMTKNQVSLWCLVKGFYPSDIAVEWESNGQPENNYKTTPPVLDSDGSFFLYSRLTVDKSRWQEGNVFSCSVMHEALHNHYTQKSLSLSLGKRSDVQLQESGGGLVQAGGSLKLSCAASRGSLSRWDVAWFRQAPGKERSFVTRISWSGTTSYYADAVKGRFAISRDNAKNTVYLQMNSLKPEDTAVYYCAVALYGNRGYYDVNAHSYWGQGTQVTVS
chain 2: GPPCPPCPAPEFLGGPSVFLFPPKPKDTLMISRTPEVTCVVVDVSQEDPEVQFNWYVDGVEVHNAKTKPREEQFNSTYRVVSVLTVLHQDWLNGKEYKCKVSNKGLPSSIEKTISKAKGQPREPQVCTLPPSQEEMTKNQVSLSCAVKGFYPSDIAVEWESNGQPENNYKTTPPVLDSDGSFFLVSRLTVDKSRWQEGNVFSCSVMHEALHNHYTQKSLSLSLGKRSEVQLLESGGGLVQPGGSLRLSCAASGFTFGNYDMAWVRQAPGKRPEWVSSIDTGGDITHYADSVKGRFTISRDNAKNTLYLQMNSLRPEDTAVYWCATDEEYALGPNEFDYYGQGTLVTVSS
B5: CIgG4F1A1(G4S)2 (Fc fusion)
chain 1: GPPCPPCPAPEFLGGPSVFLFPPKPKDTLMISRTPEVTCVVVDVSQEDPEVQFNWYVDGVEVHNAKTKPREEQFNSTYRVVSVLTVLHQDWLNGKEYKCKVSNKGLPSSIEKTISKAKGQPREPQVYTLPPCQEEMTKNQVSLWCLVKGFYPSDIAVEWESNGQPENNYKTTPPVLDSDGSFFLYSRLTVDKSRWQEGNVFSCSVMHEALHNHYTQKSLSLSLGKGGGGSGGGGSDVQLQESGGGLVQAGGSLKLSCAASGGSLSRYDMGWFRQAPGKEREFVARISWSGTTKYYADAVKGRFAISRDNAKNTVYLQMNSLKPEDTAVYYCAAAFYGNRGYYDVNAYTSSGQGTQVTVS
chain 2: GPPCPPCPAPEFLGGPSVFLFPPKPKDTLMISRTPEVTCVVVDVSQEDPEVQFNWYVDGVEVHNAKTKPREEQFNSTYRVVSVLTVLHQDWLNGKEYKCKVSNKGLPSSIEKTISKAKGQPREPQVCTLPPSQEEMTKNQVSLSCAVKGFYPSDIAVEWESNGQPENNYKTTPPVLDSDGSFFLVSRLTVDKSRWQEGNVFSCSVMHEALHNHYTQKSLSLSLGKGGGGSGGGGSEVQLLESGGGLVQPGGSLRLSCAASGFTFGNYDMAWVRQAPGKRPEWVSSIDTGGDITHYADSVKGRFTISRDNAKNTLYLQMNSLRPEDTAVYWCATDEEYALGPNEFDYYGQGTLVTVSS
B6: CIgG4F2A1(G4S)2 (Fc fusion)
chain 1: GPPCPPCPAPEFLGGPSVFLFPPKPKDTLMISRTPEVTCVVVDVSQEDPEVQFNWYVDGVEVHNAKTKPREEQFNSTYRVVSVLTVLHQDWLNGKEYKCKVSNKGLPSSIEKTISKAKGQPREPQVYTLPPCQEEMTKNQVSLWCLVKGFYPSDIAVEWESNGQPENNYKTTPPVLDSDGSFFLYSRLTVDKSRWQEGNVFSCSVMHEALHNHYTQKSLSLSLGKGGGGSGGGGSDVQLQESGGGLVQAGGSLKLSCAASGGSLSRYDMGWFRQAPGKEREFVARISWSGDTKYYADAVEGRFAISRDNAQNTVYLQMNSLKPEDTAVYYCAVALYGNRGYYDVNTYSYWGQGTRVTVS
chain 2: GPPCPPCPAPEFLGGPSVFLFPPKPKDTLMISRTPEVTCVVVDVSQEDPEVQFNWYVDGVEVHNAKTKPREEQFNSTYRVVSVLTVLHQDWLNGKEYKCKVSNKGLPSSIEKTISKAKGQPREPQVCTLPPSQEEMTKNQVSLSCAVKGFYPSDIAVEWESNGQPENNYKTTPPVLDSDGSFFLVSRLTVDKSRWQEGNVFSCSVMHEALHNHYTQKSLSLSLGKGGGGSGGGGSEVQLLESGGGLVQPGGSLRLSCAASGFTFGNYDMAWVRQAPGKRPEWVSSIDTGGDITHYADSVKGRFTISRDNAKNTLYLQMNSLRPEDTAVYWCATDEEYALGPNEFDYYGQGTLVTVSS
B7: CIgG4F1A1(G4S)3 (Fc fusion)
chain 1: GPPCPPCPAPEFLGGPSVFLFPPKPKDTLMISRTPEVTCVVVDVSQEDPEVQFNWYVDGVEVHNAKTKPREEQFNSTYRVVSVLTVLHQDWLNGKEYKCKVSNKGLPSSIEKTISKAKGQPREPQVYTLPPCQEEMTKNQVSLWCLVKGFYPSDIAVEWESNGQPENNYKTTPPVLDSDGSFFLYSRLTVDKSRWQEGNVFSCSVMHEALHNHYTQKSLSLSLGKGGGGSGGGGSGGGGSDVQLQESGGGLVQAGGSLKLSCAASGGSLSRYDMGWFRQAPGKEREFVARISWSGTTKYYADAVKGRFAISRDNAKNTVYLQMNSLKPEDTAVYYCAAAFYGNRGYYDVNAYTSSGQGTQVTVS
chain 2: GPPCPPCPAPEFLGGPSVFLFPPKPKDTLMISRTPEVTCVVVDVSQEDPEVQFNWYVDGVEVHNAKTKPREEQFNSTYRVVSVLTVLHQDWLNGKEYKCKVSNKGLPSSIEKTISKAKGQPREPQVCTLPPSQEEMTKNQVSLSCAVKGFYPSDIAVEWESNGQPENNYKTTPPVLDSDGSFFLVSRLTVDKSRWQEGNVFSCSVMHEALHNHYTQKSLSLSLGKGGGGSGGGGSGGGGSEVQLLESGGGLVQPGGSLRLSCAASGFTFGNYDMAWVRQAPGKRPEWVSSIDTGGDITHYADSVKGRFTISRDNAKNTLYLQMNSLRPEDTAVYWCATDEEYALGPNEFDYYGQGTLVTVSS
B8: CIgG4F2A1(G4S)3 (Fc fusion)
chain 1: GPPCPPCPAPEFLGGPSVFLFPPKPKDTLMISRTPEVTCVVVDVSQEDPEVQFNWYVDGVEVHNAKTKPREEQFNSTYRVVSVLTVLHQDWLNGKEYKCKVSNKGLPSSIEKTISKAKGQPREPQVYTLPPCQEEMTKNQVSLWCLVKGFYPSDIAVEWESNGQPENNYKTTPPVLDSDGSFFLYSRLTVDKSRWQEGNVFSCSVMHEALHNHYTQKSLSLSLGKGGGGSGGGGSGGGGSDVQLQESGGGLVQAGGSLKLSCAASGGSLSRYDMGWFRQAPGKEREFVARISWSGDTKYYADAVEGRFAISRDNAQNTVYLQMNSLKPEDTAVYYCAVALYGNRGYYDVNTYSYWGQGTRVTVS
chain 2: GPPCPPCPAPEFLGGPSVFLFPPKPKDTLMISRTPEVTCVVVDVSQEDPEVQFNWYVDGVEVHNAKTKPREEQFNSTYRVVSVLTVLHQDWLNGKEYKCKVSNKGLPSSIEKTISKAKGQPREPQVCTLPPSQEEMTKNQVSLSCAVKGFYPSDIAVEWESNGQPENNYKTTPPVLDSDGSFFLVSRLTVDKSRWQEGNVFSCSVMHEALHNHYTQKSLSLSLGKGGGGSGGGGSGGGGSEVQLLESGGGLVQPGGSLRLSCAASGFTFGNYDMAWVRQAPGKRPEWVSSIDTGGDITHYADSVKGRFTISRDNAKNTLYLQMNSLRPEDTAVYWCATDEEYALGPNEFDYYGQGTLVTVSS

The EC50 is the concentration that produces a half-maximal response.

The target in the experiment is T1, recombinant human IgE (human, UniProt P01854-1 1-428).
T1 construct: made in-house (ALK); preloaded on immobilised FcεRIα in the displacement ELISA
T1 sequence (P01854 other isoform, or with tags, fused parts or gaps): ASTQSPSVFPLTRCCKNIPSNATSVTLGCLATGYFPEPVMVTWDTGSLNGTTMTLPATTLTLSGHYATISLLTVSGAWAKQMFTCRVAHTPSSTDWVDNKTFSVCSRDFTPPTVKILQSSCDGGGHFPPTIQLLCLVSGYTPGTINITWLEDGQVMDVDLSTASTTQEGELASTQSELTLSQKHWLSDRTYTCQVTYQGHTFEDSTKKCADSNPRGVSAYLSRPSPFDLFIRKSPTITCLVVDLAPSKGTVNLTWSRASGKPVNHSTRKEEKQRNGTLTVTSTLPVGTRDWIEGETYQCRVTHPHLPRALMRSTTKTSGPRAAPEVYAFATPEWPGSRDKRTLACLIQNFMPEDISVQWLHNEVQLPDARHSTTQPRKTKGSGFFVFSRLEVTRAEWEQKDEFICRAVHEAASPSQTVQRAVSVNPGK
Put plainly: IgE-FcεRIα displacement ELISA. In short, it runs like this:
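Streptavidin-coated plates carried site-specifically biotinylated recombinant human FcεRIα, loaded with recombinant human IgE at 13 ng/ml. sdAbs in a pM–μM series were added for 1 h, and displaced IgE was washed off. Percent displacement was the signal reduction versus the no-sdAb control, giving EC50 and maximal effect.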
A general note: ELISA stands for enzyme-linked immunosorbent assay.
On to B1, for which the Max effect came to 20%.

For the molecule B2, the EC50 came out at 1000 nM and the Max effect worked out at 50%.

Regarding B3, the Max effect was found to be 10%.

With B4, the Max effect was 30%.

Take B5: the concentration for a half-maximal effect (EC50) is 800 nM and the Max effect stood at 55%.

As to B6, the Max effect was 35%.

Take B7: the EC50 was 480 nM and the Max effect is 65%.

For B8, the Max effect came to 45%.

(Values after patent US20250171562A1 (ALK ABELL, published 2025).)
